Results on two molecules are retold here after US20250333514A1 (CDR LIFE, published 2025).

Where two headings read alike, the source gives them in different places.

Test in all cases: SPR (Biacore 8K), pMHC captured, Fab-scFv analyte
In assay [1] the target is T1, HLA-A*02:01/PRAME antigen (recombinant, … on HLA-A*02:01) (human, Complex biotinylated for SPR capture; site of biotin and any tag not stated, not in the letters.).
T1 construct: also called PRAME target; pMHC
How it is done: (§1) Recombinantly produced hits in Fab-scFv format, as described in Example 4, were evaluated for their ability to bind HLA-A*02:01/PRAME antigen. Binding characterization was performed by surface plasmon resonance (SPR) using a Biacore™ 8k (Cytiva) device. Briefly, 3000 RU of Biotin CAPture reagent (Cytiva) was immobilized on a Series S Sensor Chip CAP (Cytiva) and the biotinylated ligand HLA-A*02:01/PRAME (SEQ ID NO: 68) was diluted in HPS-EP+ running buffer (TEKNOVA) and captured for 300 s at a flow rate of 2 μL/min at flow cell 2 resulting in a ligand capture level of >100 RU. Subsequently, at least three consecutive analyte injections were performed at suitable concentrations applying the single-cycle-kinetics mode at a flow rate of 30 μL/min with an association time of 90 s and the dissociation time set to >400 s. The chip surface was regenerated according to the manufacturer's instructions. After reference flow cell signal and blank injections subtraction, the data was fit to a 1:1 Langmuir binding model to determine the association rate constant kₐ and dissociation rate constant kd and calculate the equilibrium dissociation constant KD (kd/kₐ), also denoted as affinity, using the Biacore™ Insight Evaluation software.
(§2) The molecular recognition profile of monovalent (Fab-scFv) antigen binding molecules M3076 and M3287 for HLA-A*02:01/PRAME binding (equivalent bivalent (Fab-(scFv)₂) antigen binding molecules are M3167 and M3292, respectively) were determined by SPR measurements with HLA-A*02:01 complexes loaded with PRAME peptide or peptides containing a single amino acid substitution to alanine, arginine or aspartic acid. The kinetic parameters for each HLA-A*02:01 complex loaded with a peptide was determined by SPR, according to the previously described method in Example 5.

Assay [2] concerns the target HLA-A*02:01 loaded with PRAME peptide S1A (human, Complex captured as in Example 5 (biotinylated ligand); biotin site or tag not stated, not in the letters.). How it is done:
as §1, §2

The target of assay [3] is HLA-A*02:01 loaded with PRAME peptide L2A (human, Complex captured as in Example 5 (biotinylated ligand); biotin site or tag not stated, not in the letters.). How it is done: as §1, §2
Assay [4] has as its target HLA-A*02:01 loaded with PRAME peptide L3A (human, Complex captured as in Example 5 (biotinylated ligand); biotin site or tag not stated, not in the letters.). How it is done: as §1, §2
Assay [5] has as its target HLA-A*02:01 loaded with PRAME peptide Q4A (human, Complex captured as in Example 5 (biotinylated ligand); biotin site or tag not stated, not in the letters.). How it is done:
as §1, §2

Assay [6] concerns the target HLA-A*02:01 loaded with PRAME peptide H5A (human, Complex captured as in Example 5 (biotinylated ligand); biotin site or tag not stated, not in the letters.). How it is done:
as §1, §2

For assay [7], the target named is HLA-A*02:01 loaded with PRAME peptide L6A (human, Complex captured as in Example 5 (biotinylated ligand); biotin site or tag not stated, not in the letters.). How it is done: as §1, §2
The target in assay [8] is HLA-A*02:01 loaded with PRAME peptide I7A (human, Complex captured as in Example 5 (biotinylated ligand); biotin site or tag not stated, not in the letters.). How it is done: as §1, §2
Assay [9] has as its target HLA-A*02:01 loaded with PRAME peptide G8A (human, Non-covalent three-chain complex; biotinylated for capture on the chip, site or tag of biotinylation not stated.). How it is done:
as §1, §2

Assay [10] has as its target HLA-A*02:01 loaded with PRAME peptide L9A (human, Non-covalent three-chain complex; biotinylated for capture on the chip, site or tag of biotinylation not stated.). How it is done: as §1, §2
The target of assay [11] is T1, HLA-A*02:01/PRAME antigen (recombinant, …). How it is done:
as §1, §2
This is another data set of the same source.

For assay [12], the target named is HLA-A*02:01 loaded with PRAME peptide L2R (human, Non-covalent three-chain complex; biotinylated for capture on the chip, site or tag of biotinylation not stated.). How it is done: as §1, §2
Assay [13] has as its target HLA-A*02:01 loaded with PRAME peptide H5R (human, Non-covalent three-chain complex; biotinylated for capture on the chip, site or tag of biotinylation not stated.). How it is done:
as §1, §2

The target of assay [14] is HLA-A*02:01 loaded with PRAME peptide L9R (human, pMHC ligand was biotinylated for capture (Example 5); site or tag of biotinylation not disclosed). How it is done:
as §1, §2

B1: M3076 (bispecific antibody)
heavy: EVQLVESGGGLVQPGGSLRLSCAASGFTFSTYAMNWVRQAPGKGLEWVGRIRSKYNNYATYYADSVKGRFTISRDDSKNTLYLQMNSLRAEDTAVYYCVRHGNFGDSYVSWFAYWGQGTLVTVSSASTKGPSVFPLAPSSKSTSGGTAALGCLVKDYFPEPVTVSWNSGALTSGVHTFPAVLQSSGLYSLSSVVTVPSSSLGTQTYICNVNHKPSNTKVDKKVEPKSCGGGGSDIQMTQSPSSLSASVGDRVTITCRSSQSVYNNLLGWYQQKPGKAPKLLIYSASTLASGVPSRFSGSGSGTDFTLTISSLQPEDFATYYCQGTYYNGDWYYPFGCGTKVEIKGGGGSGGGGSGGGGSGGGGSQVQLVESGGGSVQPGRSLRLSCAASGFDFSTYGVSWVRQAPGKCLEWIGYIDPVYGSTHYADSVKGRFTISRDNSKNTLYLQMNSLRAEDTASYYCVRDLYAGSSGYYMIYSLWGQGTSVTVSS
light: QAVVTQEPSLTVSPGGTVTLTCGSSTGAVTTSNYANWVQQKPGKSPRGLIGGTNKRAPGVPARFSGSLLGGKAALTISGAQPEDEADYYCALWYSNHWVFGGGTKLTVLGQPKAAPSVTLFPPSSEELQANKATLVCLISDFYPGAVTVAWKADSSPVKAGVETTTPSKQSNNKYAASSYLSLTPEQWKSHRSYSCQVTHEGSTVEKTVAPTECS
notes: Humanized variant of M2638, monovalent Fab-scFv; bivalent equivalent is M3167
What is called Kd is the equilibrium constant for the complex coming apart. Consider B1, for which the Kd in [1] came to 0.08 nM; in [2], 0.09 nM; in [3], 0.07 nM; in [4] it was 0.19 nM; in assay [5], 0.18 nM; in [6], 3 nM. Also, the Kd in [7] is 15 nM; in assay [8], 31 nM; in [9], 0.77 nM; in assay [10], 1.7 nM; in assay [11], 0.08 nM; in [12] it was 0.04 nM. The values for the Kd in assay [13] and in assay [14] were 93 nM and 1.4 nM, respectively.

B2: M3287 (bispecific antibody)
heavy: EVQLVESGGGLVQPGGSLRLSCAASGFTFSTYAMNWVRQAPGKGLEWVGRIRSKYNNYATYYADSVKGRFTISRDDSKNTLYLQMNSLRAEDTAVYYCVRHGNFGDSYVSWFAYWGQGTLVTVSSASTKGPSVFPLAPSSKSTSGGTAALGCLVKDYFPEPVTVSWNSGALTSGVHTFPAVLQSSGLYSLSSVVTVPSSSLGTQTYICNVNHKPSNTKVDKKVEPKSCGGGGSDIQMTQSPSSLSASVGDRVTITCRSSQSVYNNLLGWYQQKPGKAPKLLIYSASTLASGVPSRFSGSGSGTDFTLTISSLQPEDSATYYCQGTYYTGDWYYPFGCGTKVEIKGGGGSGGGGSGGGGSGGGGSQVQLVESGGGSVQPGRSLRLSCAASGFDFSTYGVSWVRQAPGKCLEWIGYIDPVYGSTHYADSVKGRFTISRDNSKNTLYLQMNSLRAEDTASYYCVRDLYAGSSGYYVIYSLWGQGTSVTVSS
light: QAVVTQEPSLTVSPGGTVTLTCGSSTGAVTTSNYANWVQQKPGKSPRGLIGGTNKRAPGVPARFSGSLLGGKAALTISGAQPEDEADYYCALWYSNHWVFGGGTKLTVLGQPKAAPSVTLFPPSSEELQANKATLVCLISDFYPGAVTVAWKADSSPVKAGVETTTPSKQSNNKYAASSYLSLTPEQWKSHRSYSCQVTHEGSTVEKTVAPTECS
notes: Humanized variant of M2638, monovalent Fab-scFv; bivalent equivalent is M3292
For the molecule B2, the Kd in [1] was determined as 0.57 nM; in assay [2], 1.1 nM; in assay [3] it was 0.62 nM; in assay [4] it was 1.6 nM; in assay [5], 1.2 nM; in [6] it was 16 nM. Besides, the Kd is 67 nM in assay [7]; 100 nM in [8]; 9.8 nM in [9]; 18 nM in assay [10]; 0.57 nM in assay [11]; 0.31 nM in [12]. In [14], this molecule had a Kd of 6.1 nM. Moreover, the binding result in assay [13] is on record as “no binding”.
